Data on 91 sequences can be found in the supplement of paper PMC9112550, “Optimization of the antimicrobial peptide Bac7 by deep mutational scanning” (BMC Biology, 2022).

In this data set the test system is Escherichia coli TOP10. Nature of the data set: shrunken log2 fold change of peptide-encoding DNA abundance (4.5 h post-induction vs induction); higher = less antimicrobial activity (less host growth inhibition). The following applies: time post-induction: 4.5 h; library: site-saturation at positions 5, 18, 19, 20.
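Further: peptides expressed intracellularly from a pBAD plasmid library in pooled LB shake-flask culture, induced with 0.3% L-arabinose, DNA abundance read by NGS, three biological replicates, DESeq2 with apeglm shrinkage.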

In the case of RRIRFRPPRLPRPRPRPPDGPRP, the “shrunken log2 fold change” value is 0.209.

For the sequence RRIRLRPPRLPRPRPRPRDEPRP, the “shrunken log2 fold change” value is 0.162.

With RRIRWRPPRLPRPRPRPVMEPRP, the “shrunken log2 fold change” value was determined as 0.0979.

Regarding RRIRTRPPRLPRPRPRPKHWPRP, the “shrunken log2 fold change” value came out at 0.441.

Regarding RRIRLRPPRLPRPRPRPCWNPRP, the “shrunken log2 fold change” value is -0.291.

For RRIRSRPPRLPRPRPRPVMKPRP, the “shrunken log2 fold change” value was -0.45.

Take RRIRLRPPRLPRPRPRPLPQPRP: the “shrunken log2 fold change” value was found to be 0.0529.

Regarding RRIRVRPPRLPRPRPRPYHVPRP, the “shrunken log2 fold change” value was -0.055.

Turning to RRIRWRPPRLPRPRPRPCWGPRP, the “shrunken log2 fold change” value is -0.122.

On to RRIRARPPRLPRPRPRPLSTPRP, for which the “shrunken log2 fold change” value was determined as 0.319.

Turning to RRIRERPPRLPRPRPRPKFLPRP, the “shrunken log2 fold change” value is -0.219.

As for RRIRCRPPRLPRPRPRPMKNPRP, the “shrunken log2 fold change” value is -0.128.

Turning to RRIRIRPPRLPRPRPRPDKFPRP, the “shrunken log2 fold change” value is -0.565.

As for RRIRFRPPRLPRPRPRPRSTPRP, the “shrunken log2 fold change” value was 0.421.

Turning to RRIRHRPPRLPRPRPRPYQKPRP, the “shrunken log2 fold change” value was -0.01.

In the case of RRIRMRPPRLPRPRPRPDHYPRP, the “shrunken log2 fold change” value was -0.0146.

Take RRIRCRPPRLPRPRPRPPNHPRP: the “shrunken log2 fold change” value is -0.104.

As to RRIRWRPPRLPRPRPRPMVMPRP, the “shrunken log2 fold change” value is -0.0614.

Take RRIRNRPPRLPRPRPRPPAYPRP: the “shrunken log2 fold change” value is 0.0856.

As for RRIRLRPPRLPRPRPRPVEVPRP, the “shrunken log2 fold change” value is -0.0272.

Turning to RRIRTRPPRLPRPRPRPCPYPRP, the “shrunken log2 fold change” value is -0.411.

RRIRGRPPRLPRPRPRPAMMPRP: the “shrunken log2 fold change” value came to 0.51.

Take RRIRQRPPRLPRPRPRPLNEPRP: the “shrunken log2 fold change” value is -0.136.

With RRIRARPPRLPRPRPRPNGAPRP, the “shrunken log2 fold change” value stood at 0.0281.

As for RRIRIRPPRLPRPRPRPWKFPRP, the “shrunken log2 fold change” value was -0.158.

For the sequence RRIRIRPPRLPRPRPRPPSRPRP, the “shrunken log2 fold change” value was found to be 0.231.

For RRIRRRPPRLPRPRPRPLANPRP, the “shrunken log2 fold change” value was determined as 0.42.

Consider RRIRSRPPRLPRPRPRPDFQPRP, for which the “shrunken log2 fold change” value is -0.0122.

On to RRIRIRPPRLPRPRPRPQHFPRP, for which the “shrunken log2 fold change” value was -0.109.

With RRIRFRPPRLPRPRPRPLAKPRP, the “shrunken log2 fold change” value worked out at 0.182.

RRIRCRPPRLPRPRPRPFKSPRP: the “shrunken log2 fold change” value is 0.122.

With RRIRPRPPRLPRPRPRPEQVPRP, the “shrunken log2 fold change” value was determined as 0.0348.

As to RRIRGRPPRLPRPRPRPLWDPRP, the “shrunken log2 fold change” value is 0.537.

On to RRIRSRPPRLPRPRPRPENTPRP, for which the “shrunken log2 fold change” value is -0.258.

As for RRIRSRPPRLPRPRPRPAFCPRP, the “shrunken log2 fold change” value turned out to be 0.259.

For RRIRERPPRLPRPRPRPRSNPRP, the “shrunken log2 fold change” value was -0.0433.

With RRIRQRPPRLPRPRPRPTTKPRP, the “shrunken log2 fold change” value was -0.122.

As to RRIRDRPPRLPRPRPRPGGMPRP, the “shrunken log2 fold change” value amounted to 0.0874.

As for RRIRWRPPRLPRPRPRPCMPPRP, the “shrunken log2 fold change” value is -0.425.

With RRIRKRPPRLPRPRPRPDIQPRP, the “shrunken log2 fold change” value was 0.867.

Consider RRIRPRPPRLPRPRPRPAQAPRP, for which the “shrunken log2 fold change” value was determined as 0.329.

Take RRIRMRPPRLPRPRPRPDLHPRP: the “shrunken log2 fold change” value amounted to 0.0663.

Regarding RRIRFRPPRLPRPRPRPWTFPRP, the “shrunken log2 fold change” value is -0.797.

RRIRKRPPRLPRPRPRPGPAPRP: the “shrunken log2 fold change” value turned out to be 1.05.

For RRIRARPPRLPRPRPRPIHRPRP, the “shrunken log2 fold change” value was -0.26.

Regarding RRIRCRPPRLPRPRPRPAWHPRP, the “shrunken log2 fold change” value was found to be 0.182.

Take RRIRKRPPRLPRPRPRPKINPRP: the “shrunken log2 fold change” value is -0.116.

On to RRIRQRPPRLPRPRPRPLFQPRP, for which the “shrunken log2 fold change” value is 0.866.

Consider RRIRYRPPRLPRPRPRPFTSPRP, for which the “shrunken log2 fold change” value is -0.0993.

Regarding RRIRKRPPRLPRPRPRPVGPPRP, the “shrunken log2 fold change” value stood at 0.441.

For the sequence RRIRRRPPRLPRPRPRPMEHPRP, the “shrunken log2 fold change” value stood at 0.131.

RRIRVRPPRLPRPRPRPDMIPRP: the “shrunken log2 fold change” value is -0.0118.

On to RRIRIRPPRLPRPRPRPKTIPRP, for which the “shrunken log2 fold change” value was -0.25.

For RRIRTRPPRLPRPRPRPFCPPRP, the “shrunken log2 fold change” value is -0.279.

In the case of RRIRYRPPRLPRPRPRPHKFPRP, the “shrunken log2 fold change” value was -0.609.

For the sequence RRIRTRPPRLPRPRPRPEEAPRP, the “shrunken log2 fold change” value is -0.0948.

As for RRIRGRPPRLPRPRPRPMLGPRP, the “shrunken log2 fold change” value was 1.19.

Turning to RRIRRRPPRLPRPRPRPFGAPRP, the “shrunken log2 fold change” value was 0.153.

In the case of RRIRARPPRLPRPRPRPNAMPRP, the “shrunken log2 fold change” value was found to be 0.272.

RRIRCRPPRLPRPRPRPNHIPRP: the “shrunken log2 fold change” value was -0.994.

As for RRIRQRPPRLPRPRPRPEVPPRP, the “shrunken log2 fold change” value was -0.00133.

Take RRIRTRPPRLPRPRPRPNLSPRP: the “shrunken log2 fold change” value amounted to 0.00227.

Consider RRIRLRPPRLPRPRPRPVLHPRP, for which the “shrunken log2 fold change” value is -0.024.

Regarding RRIRHRPPRLPRPRPRPNDKPRP, the “shrunken log2 fold change” value is -0.526.

In the case of RRIRKRPPRLPRPRPRPGVNPRP, the “shrunken log2 fold change” value worked out at 0.213.

For the sequence RRIRDRPPRLPRPRPRPDEDPRP, the “shrunken log2 fold change” value is 1.46.

For RRIRVRPPRLPRPRPRPWFWPRP, the “shrunken log2 fold change” value amounted to 0.121.

Turning to RRIRHRPPRLPRPRPRPIDQPRP, the “shrunken log2 fold change” value is 0.0834.

As for RRIRRRPPRLPRPRPRPFWPPRP, the “shrunken log2 fold change” value turned out to be 0.312.

As for RRIRCRPPRLPRPRPRPRISPRP, the “shrunken log2 fold change” value is -0.248.

On to RRIRVRPPRLPRPRPRPPMCPRP, for which the “shrunken log2 fold change” value worked out at 0.0598.

Take RRIRERPPRLPRPRPRPEQRPRP: the “shrunken log2 fold change” value is 0.32.

As for RRIRLRPPRLPRPRPRPSNNPRP, the “shrunken log2 fold change” value is -0.928.

For RRIRLRPPRLPRPRPRPWLEPRP, the “shrunken log2 fold change” value was -0.212.

With RRIRQRPPRLPRPRPRPSDRPRP, the “shrunken log2 fold change” value was -0.264.

Consider RRIRIRPPRLPRPRPRPIGQPRP, for which the “shrunken log2 fold change” value was -0.0062.

On to RRIRLRPPRLPRPRPRPCALPRP, for which the “shrunken log2 fold change” value is -0.0607.

For RRIRCRPPRLPRPRPRPRKLPRP, the “shrunken log2 fold change” value came out at 0.0902.

In the case of RRIRGRPPRLPRPRPRPEGFPRP, the “shrunken log2 fold change” value worked out at 1.56.

Turning to RRIRRRPPRLPRPRPRPSKCPRP, the “shrunken log2 fold change” value was -0.47.

With RRIRIRPPRLPRPRPRPGRSPRP, the “shrunken log2 fold change” value was determined as 0.0764.

In the case of RRIRERPPRLPRPRPRPHGYPRP, the “shrunken log2 fold change” value turned out to be 0.0062.

On to RRIRLRPPRLPRPRPRPIHWPRP, for which the “shrunken log2 fold change” value is 0.143.

Consider RRIRLRPPRLPRPRPRPGRDPRP, for which the “shrunken log2 fold change” value came to 0.26.

For RRIRVRPPRLPRPRPRPWKMPRP, the “shrunken log2 fold change” value is -0.148.

For RRIRNRPPRLPRPRPRPMADPRP, the “shrunken log2 fold change” value amounted to 0.0252.

In the case of RRIRYRPPRLPRPRPRPLPVPRP, the “shrunken log2 fold change” value was -0.142.

As for RRIRKRPPRLPRPRPRPEEHPRP, the “shrunken log2 fold change” value was 2.61.

For the sequence RRIRWRPPRLPRPRPRPFSGPRP, the “shrunken log2 fold change” value is 0.0272.

In the case of RRIRIRPPRLPRPRPRPMHEPRP, the “shrunken log2 fold change” value was -0.0221.

Consider RRIRGRPPRLPRPRPRPINFPRP, for which the “shrunken log2 fold change” value is -0.189.
